One substance from paper PMC12963305 can be followed below.

This assay has as its target EmER1, EGF receptor of Echinococcus multilocularis, extracellular region in the MALAR-Y2H receptor vector (Echinococcus multilocularis).

Consider “human EGF, extracellular domain in the MALAR-Y2H ligand vector (from UniProt P01133 23-1032)”, for which the germinal vesicle breakdown (GVBD) of Xenopus oocytes expressing EmER1 from cRNA, stimulated by 50 nM recombinant human EGF, counted after 15 h is 30%.
